Test results taken from publication PMC5566211.

Experiments:
Assay in all cases: purified protein
Conditions in all cases: phosphate-buffered saline 50 mM, pH 7.0, 37 °C
[1] = system: CC(=O)OCC1=C(C(=O)O)N2C(=O)[C@@H](NC(=O)Cc3cccs3)[C@H]2SC1
[2] = system: CC(C)(O/N=C(\C(=O)N[C@@H]1C(=O)N2C(C(=O)[O-])=C(C[n+]3ccccc3)CS[C@H]12)c1csc(N)n1)C(=O)O
[3] = system: CC1=C(C(=O)O)N2C(=O)[C@@H](NC(=O)[C@H](N)C3=CCC=CC3)[C@H]2SC1
[4] = system: CCN1CCN(C(=O)N[C@@H](C(=O)N[C@@H]2C(=O)N3C(C(=O)O)=C(CSc4nnnn4C)CS[C@H]23)c2ccc(O)cc2)C(=O)C1=O
[5] = system: CO/N=C(\C(=O)N[C@@H]1C(=O)N2C(C(=O)O)=C(COC(C)=O)CS[C@H]12)c1csc(N)n1
[6] = system: CO/N=C(\C(=O)N[C@@H]1C(=O)N2C(C(=O)O)=C(CSc3nc(=O)c(=O)[nH]n3C)CS[C@H]12)c1csc(N)n1
[7] = system: CO/N=C(\C(=O)N[C@@H]1C(=O)N2C(C(=O)[O-])=C(C[N+]3(C)CCCC3)CS[C@H]12)c1csc(N)n1
[8] = system: C[C@@H](O)[C@H]1C(=O)N2C(C(=O)O)=C(S[C@@H]3CN[C@H](C(=O)N(C)C)C3)[C@H](C)[C@H]12
[9] = system: C[C@H]1[C@H](NC(=O)/C(=N\OC(C)(C)C(=O)O)c2csc(N)n2)C(=O)N1S(=O)(=O)O
[10] = system: Cc1nnc(SCC2=C(C(=O)O)N3C(=O)[C@@H](NC(=O)Cn4cnnn4)[C@H]3SC2)s1
[11] = system: Cc1onc(-c2ccccc2)c1C(=O)N[C@@H]1C(=O)N2[C@@H]1SC(C)(C)[C@@H]2C(=O)O

In the case of PAD-1 (Paramesorhizobium deserti), the Km [1] is reported as 91.59 µM, the kcat [1] is reported as 15.2 s⁻¹ and the kcat/Km [1] is reported as 166000 M⁻¹ s⁻¹. For the same substance, the Km [2] was 110.04 µM, the kcat [2] was 12.1 s⁻¹ and the kcat/Km [2] was 110000 M⁻¹ s⁻¹. The Km [3] was 347.9 µM, the kcat [3] was 31.8 s⁻¹ and the kcat/Km [3] was 91300 M⁻¹ s⁻¹. The Km [4] was 47.80 µM, the kcat [4] was 15.1 s⁻¹ and the kcat/Km [4] was 315000 M⁻¹ s⁻¹. For the same substance, the Km [5] was 137.08 µM, the kcat [5] was 20.1 s⁻¹ and the kcat/Km [5] was 146000 M⁻¹ s⁻¹. It also gave a Km [6] of 90.84 µM, a kcat [6] of 16.3 s⁻¹ and a kcat/Km [6] of 179000 M⁻¹ s⁻¹. The Km [7] was 108.40 µM, the kcat [7] was 10.4 s⁻¹ and the kcat/Km [7] was 95900 M⁻¹ s⁻¹. The Km [8] was 389.69 µM, the kcat [8] was 24.2 s⁻¹ and the kcat/Km [8] was 62200 M⁻¹ s⁻¹. The Km [9] was 276.08 µM, the kcat [9] was 39 s⁻¹ and the kcat/Km [9] was 141000 M⁻¹ s⁻¹. It also gave a Km [10] of 89.16 µM, a kcat [10] of 22.6 s⁻¹ and a kcat/Km [10] of 253000 M⁻¹ s⁻¹. The Km [11] was 383.96 µM, the kcat [11] was 58.7 s⁻¹ and the kcat/Km [11] was 153000 M⁻¹ s⁻¹.
